Experiment in all cases: EMSA
Conditions in all cases: EMSA: 20 mM Tris-HCl pH 8.0, 1 mM MgCl2, 20 mM KCl, 10 mM Na phosphate pH 8.0, 10% glycerol, 500 nM heparin, 1 nM RNA, 37 C 1 h (PNPase: TMK, 50 mM Tris-HCl pH …)
Background: A gel shift assay detects complexes by their altered migration in electrophoresis.

Data set [1] concerns the target T1, RhlB (DEAD box RNA helicase) (Deinococcus radiodurans R1) (UniProt Q9RXH8).
T1 sequence: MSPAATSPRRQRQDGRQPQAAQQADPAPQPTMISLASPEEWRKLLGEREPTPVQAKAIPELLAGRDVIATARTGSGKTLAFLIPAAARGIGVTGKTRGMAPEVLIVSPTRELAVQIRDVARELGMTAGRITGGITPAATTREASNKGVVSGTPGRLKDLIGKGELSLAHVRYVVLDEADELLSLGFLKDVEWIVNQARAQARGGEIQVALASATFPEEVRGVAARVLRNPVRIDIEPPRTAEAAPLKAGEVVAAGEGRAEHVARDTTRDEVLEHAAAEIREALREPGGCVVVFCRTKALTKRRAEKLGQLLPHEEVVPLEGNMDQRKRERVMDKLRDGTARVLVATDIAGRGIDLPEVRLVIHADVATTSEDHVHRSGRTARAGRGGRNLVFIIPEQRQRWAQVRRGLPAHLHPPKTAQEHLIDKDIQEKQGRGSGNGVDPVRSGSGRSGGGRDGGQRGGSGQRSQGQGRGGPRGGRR

For data set [2], the target named is T2, RpsA (ribosomal protein S1) (Deinococcus radiodurans R1) (UniProt Q9RSY6).
T2 sequence: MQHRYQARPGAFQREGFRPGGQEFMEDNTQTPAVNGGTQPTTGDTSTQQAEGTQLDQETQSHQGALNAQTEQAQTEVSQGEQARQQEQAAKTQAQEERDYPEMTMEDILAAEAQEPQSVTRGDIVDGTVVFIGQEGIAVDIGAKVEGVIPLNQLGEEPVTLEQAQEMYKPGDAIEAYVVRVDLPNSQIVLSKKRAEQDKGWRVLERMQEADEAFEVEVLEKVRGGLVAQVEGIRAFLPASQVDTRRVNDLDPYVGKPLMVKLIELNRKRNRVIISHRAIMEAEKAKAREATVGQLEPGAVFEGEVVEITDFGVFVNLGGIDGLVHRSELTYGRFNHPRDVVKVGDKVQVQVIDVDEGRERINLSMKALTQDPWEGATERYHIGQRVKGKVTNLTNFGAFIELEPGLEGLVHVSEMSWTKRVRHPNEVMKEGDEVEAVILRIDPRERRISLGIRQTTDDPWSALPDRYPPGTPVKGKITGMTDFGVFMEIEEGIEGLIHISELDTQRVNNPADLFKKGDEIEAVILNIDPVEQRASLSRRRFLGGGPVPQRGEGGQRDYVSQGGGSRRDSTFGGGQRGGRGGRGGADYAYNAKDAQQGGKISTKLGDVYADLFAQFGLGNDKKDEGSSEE

Data set [3] addresses T3, Rho transcription termination factor (Deinococcus radiodurans R1) (UniProt P52153).
T3 sequence: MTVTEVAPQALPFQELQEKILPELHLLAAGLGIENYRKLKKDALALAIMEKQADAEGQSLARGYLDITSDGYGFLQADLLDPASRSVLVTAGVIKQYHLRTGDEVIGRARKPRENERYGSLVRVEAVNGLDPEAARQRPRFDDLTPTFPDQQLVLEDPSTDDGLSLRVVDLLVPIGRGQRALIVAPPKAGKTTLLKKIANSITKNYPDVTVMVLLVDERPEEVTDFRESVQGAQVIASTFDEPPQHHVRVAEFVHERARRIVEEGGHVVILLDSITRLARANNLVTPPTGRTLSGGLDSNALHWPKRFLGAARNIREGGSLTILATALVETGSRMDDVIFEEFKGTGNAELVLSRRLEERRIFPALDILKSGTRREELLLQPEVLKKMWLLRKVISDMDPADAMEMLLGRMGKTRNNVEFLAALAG

One may read the Kd as the equilibrium constant for the complex coming apart. Lower therefore signals tighter binding.

On to “NNNGNNNNNGNNNNNGNNNNNGNN [8-oxoG x1 24-mer (random N, degenerate)]”, for which the dissociation constant (Kd) in data set [1] (8-oxoG at position 16) stood at 383 nM; in data set [2] (8-oxoG at position 16) it was 1710 nM; in data set [3] (8-oxoG at position 16), 1880 nM.

With “NNNGNNNNNGNNNNNGNNNNNGNN [8-oxoG x2 24-mer (random N, degenerate)]”, the Kd in data set [1] (8-oxoG at positions 16, 22) was determined as 355 nM.

As for “NNNGNNNNNGNNNNNGNNNNNGNN [8-oxoG x3 24-mer (random N, degenerate)]”, the Kd in data set [1] (8-oxoG at positions 10, 16, 22) came to 351 nM.

“NNNGNNNNNGNNNNNGNNNNNGNN [8-oxoG x4 24-mer (random N, degenerate)]”: in data set [1] (8-oxoG at positions 4, 10, 16, 22), the Kd came out at 341 nM.

Regarding “NNNGNNNNNGNNNNNGNNNNNGNN [Ctrl 24-mer (random N, degenerate)]”, the Kd in data set [1] is 3010 nM; in data set [2] it was 5440 nM; in data set [3] it was 3940 nM.

The record behind these values is publication PMC9430589.
